Target: NSP5, rotavirus RV Strain A RF, N-terminally Strep-tagged, full length (group A rotavirus, strain RF (RV Strain A RF))
Test: native MS; full-length NSP5 in 200 mM ammonium acetate pH 6.9, 20 μM monomer; Q-Exactive UHMR, nESI

## NSP5, rotavirus RV Strain A RF, N-terminally Strep-tagged, full length (natural protein)
  stoichiometry N: 10

From PMC12168090
